# Measurements reported in the supplement of paper PMC12042874.
# ± gives the uncertainty stated by the source.
# Assay: amyloid nucleation score (Sup35N fusion, yeast selection) (log enrichment); library NNK3; higher = more nucleation; inactive = no reads after selection
# Method in brief: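 For the nucleation score, DiMSum gave the log enrichment of output over input reads, centred on the mode score of non-aggregating sequences. Psi-negative yeast expressing Sup35N fused to peptides of 20 random codons were induced with 100 μM copper sulfate for 24 hours and grown 7 days at 30°C on medium lacking adenine and uracil. Input and output plasmid inserts were Illumina-sequenced, and sequences with under 100 input reads were excluded.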
row,Substance,amyloid nucleation score
1,WQTDEDRRCKTDFISLF,inactive
2,WRIDDY,inactive
3,WRRCMRYGTASASSSENAHY,0.837 ± 0.18
4,WRRGFVNSRGYNLRFWGHYF,inactive
5,WSCASSCFY,inactive
6,WSFMLFSVSYYNQGEAVLPA,inactive
7,WSGNCFNQSKLAWYDHYHQW,inactive
8,WSVVRRAELSNSVKFEDHGM,inactive
9,WSYNITK,inactive
10,WTDVRGMVSSINGRSTSRVP,inactive
11,WTGLLLCVF,-0.093 ± 0.85
12,WTIDTD,inactive
13,WTRESLQYTGNSYGALSTFF,inactive
14,WTSDSRCYMNLKRCRGYTLF,inactive
15,WTVIDYDKTWIYLLASVLYL,inactive
16,WVCDRLGRVSLILRL,1.06 ± 0.2
17,WVEWIWSWKNDVPLVCRASA,inactive
18,WVFISKQLVNDVAWPVLCAL,-0.17 ± 0.85
19,WVFSWKMHRSKSKYRSKYLP,inactive
20,WVFVDLLSNVVFNGKIVERC,inactive
21,WVHCSPGDRSFTLGTPSFHK,inactive

row,Substance,amyloid nucleation score
1,WVRVVFSGSRYRTVCSGSRC,-0.788 ± 1.4
2,WVVQE,-0.553 ± 0.93
3,WWAVTKFTAFYMRVIYKIGR,inactive
4,WWIARIRMHGCCDVYLGQHR,2.6 ± 0.087
5,WYADICCCQIFRCWKLDRWS,inactive
6,WYFGCSALYQL,1.49 ± 0.099
7,WYGRLGWRLVRPLGRYFTRS,inactive
8,WYRYFGCEDP,inactive
9,WYSTEM,inactive
10,WYTNPRDIRYFLVVYKKQN,inactive
11,WYVFPCRDLVDMCCSGRCAV,inactive
12,YAMYSYFFIVAWFFNRS,0.252 ± 0.39
13,YAPSVLSCN,inactive
14,YARVMSVAMSWEDQNSTKKR,0.467 ± 0.19
15,YARWDRSKYMTRYCHCCYFL,inactive
16,YARYYGCGIWGWWFSNRSLL,inactive
17,YAYMYNVCYGDCRCANGVWY,2.71 ± 0.084
18,YCCDLYLN,inactive
19,YCCNGYPACG,inactive
20,YCKIKLIQGNRFNEYISYCD,2.56 ± 0.054
21,YCLTLNHAMIRFGMCCHYMC,inactive

row,Substance,amyloid nucleation score
1,YCLVV,inactive
2,YCMWLPFMVNFH,2.58 ± 0.057
3,YCQESRSCWAQSYICEGVSL,-0.253 ± 1.1
4,YCQIK,inactive
5,YCRSSPTLTFCQYSL,inactive
6,YCVFGWIKAWPGGLVVNEFR,inactive
7,YCVLVIFVGFCFMEFENVTQ,inactive
8,YDADRGEWLQLITSPDPFFY,inactive
9,YDCVGDGWRPWLRPEDRSHV,inactive
10,YDGRIGRYSSYIKKCF,inactive
11,YDLCERLR,inactive
12,YDLVIGCVMNVLFVLRCATR,inactive
13,YDPFYGNDQVPIQIVFLCFP,inactive
14,YDRGIVWH,inactive
15,YEAFADRTPLVFAHSWSMLK,inactive
16,YEGRSNSVRSK,inactive
17,YEHRCCHSNIDIFGLQSRNV,inactive
18,YEIHWSRRKGMWFEYYTFHF,inactive
19,YEIYQFSYPRFWKYQCNCSS,inactive
20,YERLLRDKALAPIDPI,inactive
21,YERWKLVHHGKNMYEGVYRL,inactive

row,Substance,amyloid nucleation score
1,YEVNGFAQNRA,-0.564 ± 1
2,YEYYGVKRCIVLG,inactive
3,YFGFYSLWYKYYVTSISRSL,inactive
4,YFGKAMHLLGYSFETGLDWS,inactive
5,YFILLGSAGRCAPMM,0.71 ± 0.23
6,YFKVFQVLNLNICYSYRMVN,inactive
7,YFKWVFKSYKPV,1.35 ± 0.12
8,YFLDLL,inactive
9,YFLEGNFESRWGECRSARSW,0.053 ± 0.52
10,YFLICIQVHKSMRNCPFYVS,inactive
11,YFNLSEYGLCCYRGFRVYKS,1.23 ± 0.18
12,YFSACTVKKHTSWCADVT,inactive
13,YFSSSWGMLKCGFAVFDHLT,inactive
14,YFVALVS,inactive
15,YFVIIYWLAPHHSNLLISFP,inactive
16,YFYSSDALPSIS,inactive
17,YGCQSCHGFLCSQFGRPAHS,0.976 ± 0.21
18,YGGMVN,inactive
